Experimental data: publication PMC10819331

System: T1, MBP-Z3495 (LysR-type regulator) (Escherichia coli O157:H7 EDL933?), ORF:b652805f
T1 sequence: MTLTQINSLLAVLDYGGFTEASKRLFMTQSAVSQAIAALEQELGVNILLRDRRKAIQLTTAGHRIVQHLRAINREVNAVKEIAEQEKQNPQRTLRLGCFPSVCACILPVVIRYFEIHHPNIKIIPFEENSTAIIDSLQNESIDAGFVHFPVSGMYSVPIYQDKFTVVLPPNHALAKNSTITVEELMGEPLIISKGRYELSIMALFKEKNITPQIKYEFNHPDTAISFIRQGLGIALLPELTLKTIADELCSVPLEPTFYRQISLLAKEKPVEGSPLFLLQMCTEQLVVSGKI
Experiment: EMSA

**Q.** With “AATTCCCGATTACGCATCGCACCATTGAGAAGTTTTATTTTATATGAGGATAACATTTTTAAATTTTATTCATCCTGGTGGTTGAACAATGAGAAAAAATATGGTGAACTTACATCGTCTAAGAATAGAGTAGAAAGGAAGCTGTTGTACAGTACTATTTAATGGAATATTCATAATTAAT (double strand) [LEE4 promoter]” as the sequence, how does the binding read?
**A.** no binding

**Q.** How did the binding turn out when “GTTATCGCAGGGAGCCACACAGCGTGTGTTGGACGCGACTCAGCTTTACCTTGGTGAGATTGGTTATTCACCACTGTTAACGGCCGAAGAAGAAGTTTATTTTGCGCGTCGCGCACTGCGTGGAGATGTCGCCTCTCGCCGCCGGATGATCGAGAGTAACTTGCGTCTGGTGGTAAAA (double strand) [rpoS fragment]” was run?
**A.** no binding

**Q.** How did the binding turn out when “TAAAAACTCTTCAACGTTTCTTTTAACTAAAAGATTCATCTGCAGGCTCTGAAGTAAGTATACGTGTGAATATTATTGCTTGAAAAAGCGTATTGGATAATATATACAGTATATGTACTTTATGTACATTGCAACTATTTAAATAATATAATAGTTGCCTATGGGATAATTTGGTTATTTATAACCAGGTAAATGTCTAAATTAGACAAAAGGAGAAAGATCAATGGAAGCAGCAAATTTAAGTCCTTCTGGTGCAGTAATGCCGCTGGCGACCTCACTCA (double strand) [LEE2/3 promoter]” was run?
**A.** no binding
